Measured values: publication PMC8225759, “A GH89 human α-N-acetylglucosaminidase (hNAGLU) homologue from gut microbe Bacteroides thetaiotaomicron capable of hydrolyzing heparosan oligosaccharides” (AMB Express, 2021)

Columns and labels:
purified protein [1] = substrate: CC(=O)N[C@H]1[C@@H](O[C@H]2[C@H](O)[C@@H](O)[C@H](OCCCNC(=O)OCC3c4ccccc4-c4ccccc43)O[C@@H]2C(=O)O)O[C@H](CO)[C@@H](O)[C@@H]1O; test: purified protein; settings: pH 5.0; 30.0 °C
purified protein [2] = substrate: CC(=O)N[C@H]1[C@@H](Oc2ccc3c(C)cc(=O)oc3c2)O[C@H](CO)[C@@H](O)[C@@H]1O; test: purified protein; settings: pH 5.0; 30.0 °C

B1: (Bacteroides thetaiotaomicron VPI-5482) (protein)
chain: TGPPVLKEMCQRLFPRHAQSFLFELLTDSIDTDRFILESSQGKIRIKGNNRNSLAAGLNHYLKNYCHTHVSWYASETVEMPDVLPEIPQPVYIRSKCDNRFFLNYCTFGYTMPYWKWQDWERLIDWMALNGVTMPLAITGQESIWYKVWTDMGLSDEQVRSYFTGPAHLPWHRMSNVDFWQSPLPQSWLKDQEELQKRILEREREFDMTPVLPAFAGHVPAELKTIYPNAKIYQMSQWGGFDEKYRSHFIDPMDSLYSIIQRRFLEEQTKVYGTDHIYGIDPFNEVDSPDWSEDFLANVSSKIYESIHQVDSAAQWLQMTWMFFYDKKKWTQPRIRSFLKAVPDNKLILLDYYCDHTEIWRNTEKYYGNPYIWCYLGNFGGNTMIAGNLNDIDFKIKRLFKEGGDNVYGLGATLEGFDVNPLMYEFVFDQAWDYPVTTDQWITNWSMCRGGNQDANIIKAWRALHQKIYTEHATCGQSVLMNARPRLTGTKSWNTNPGIHYANNDLWQIWKELLKARNINNSDFRFDVINIGRQVLGNLFSEYRDQFTACYNRKDTTGMREWSTRMDNLLLDVDRLLSCDATLSIGKWLQDARNCGATVSEKDYYEENARCILTVWGQQDTQLNDYANRGWGGLTRSFYRERWKRFTDGVIAAVSEDKPFDEDKFHQDITQFEYNWTLQKDSFPIVSEEDPIQIADSLILKYDTYFTKAQ
Purified protein [1]
  Km: 2190 ± 160 µM
  kcat: 3.57 ± 0.09 s⁻¹
  kcat/Km: 1630 M⁻¹ s⁻¹
Purified protein [2]
  Km: (4.6 ± 0.4) × 10^−3 mM
  kcat: 3.68 ± 0.07 s⁻¹
  kcat/Km: 800000 M⁻¹ s⁻¹
